Data as given in publication PMC10925265 (bioRxiv, 2024).

B1: calpain-3 (C129A) ΔNS&IS1 (enzyme, human, UniProt P20807-1 1-821, looked up)
chain: MISRNFPIIGVKEKTFEQLHKKCLEKKVLYVDPEFPPDETSLFYSQKFPIQFVWKRPPEICENPRFIIDGANRTDICQGELGDAWFLAAIACLTLNQHLLFRVIPHDQSFIENYAGIFHFQFWRYGEWVDVVIDDCLPTYNNQLVFTKSNHRNEFWSALLEKAYAKLHGSYEALKGGNTTEAMEDFTGGVAEFFEIRDAPSDMYKIMKKAIERGSLMGCSIDTIIPVQYETRMACGLVRGHAYSVTGLDEVPFKGEKVKLVRLRNPWGQVEWNGSWSDRWKDWSFVDKDEKARLQHQVTEDGEFWMSYEDFIYHFTKLEICNLTADALQSDKLQTWTVSVNEGRWVRGCSAGGCRNFPDTFWTNPQYRLKLLEEDDDPDDSEVICSFLVALMQKNRRKDRKLGASLFTIGFAIYEVPKEMHGNKQHLQKDFFLYNASKARSKTYINMREVSQRFRLPPSEYVIVPSTYEPHQEGEFILRVFSEKRNLSEEVENTISVDRPVKKKKTKPIIFVSDRANSNKELGVDQESEEGKGKTSPDKQKQSPQPQPGSSDQESEEQQQFRNIFKQIAGDDMEICADELKKVLNTVVNKHKDLKTHGFTLESCRSMIALMDTDGSGKLNLQEFHHLWNKIKAWQKIFKHYDTDQSGTINSYEMRNAVNDAGFHLNNQLYDIITMRYADKHMNIDFDSFICCFVRLEGMFRAFHAFDKDGDGIIKLNVLEWLQLTMYA

Assays:
[1] = molecular target: calpain-3 (C129A) ΔNS&IS1 (human) (UniProt P20807); test: SEC-MALS
SEC-MALS = molecular target: the molecule itself; test: SEC-MALS
SEC-SAXS = molecular target: the molecule itself; test: SEC-SAXS
native gel or EMSA = molecular target: the molecule itself; test: native gel or EMSA

Molecule	stoichiometry N (titin per calpain-3) [1]	stoichiometry N (SEC-MALS)	stoichiometry N (SEC-SAXS)	stoichiometry N (native gel or EMSA)
titin N2A region I81-I83 fragment (without His-tag) (domain or fragment)	2			
B1		5	6	2
